Assay results from paper doi:10.1101/730739.

Legend:
[1] = target: caprine transferrin (goat); assay: ELISA
[2] = target: ovine transferrin (sheep); assay: ELISA
[3] = target: BAP-tagged Histophilus somni Transferrin binding protein B (aa 21-643) (Histophilus somni strain H191); assay: BLI

Histophilus somni Transferrin binding protein A 2 (receptor)
absorbance signal relative to that with bovine transferrin [1]: 0.25 fold
absorbance signal relative to that with bovine transferrin [2]: 0.25 fold

caprine transferrin (ligand)
fold lower affinity than for bovine transferrin [3]: 15.7 fold

ovine transferrin (ligand)
fold lower affinity than for bovine transferrin [3]: 3 fold
